Reference: article PMC4212957, “The serodominant secreted effector protein of Salmonella, SseB, is a strong CD4 antigen containing an immunodominant epitope presented by diverse HLA class II alleles” (Immunology, 2014)

Experiments:
[1] = tested on: draining lymph node cells of HLA-DR1 transgenic mice; experiment: Murine IFN-γ ELISpot, HLA-DR1 transgenic mice primed with SseB; conditions: mouse, in vivo
Excerpt: (§1) Mice transgenic for HLA-DR1 (that is, HLA-DRA1*0101/HLA-DRB1*0101) and HLA-DR4 (that is, HLA-DRA1*0101/HLA-DRB1*0401)[24]–[26] were bred and housed in the Centre for Biological Services at the Hammersmith campus, Imperial College London, UK, in accordance with Home Office regulations and College ethics review. Both transgenic lines are maintained on a C57BL/6 background as homozygotes for knockout of murine MHC Class II H2-Aβ.[27]
(§2) HLA-DR1 or HLA-DR4 transgenic mice were primed, by subcutaneous injection into the footpad, with 25 μg of recombinant SseB protein administered as a 1 : 1 emulsion with TiterMax® Gold (CytRx Corporation, Los Angeles, CA). Ten days after priming, popliteal draining lymph nodes were harvested and stimulated, in triplicate, at 2 × 10^5 cells per well with 25 μg of SseB peptide or recombinant protein in pre-coated murine IFN-γ ELISpot plates (2BScientific, Upper Heyford, Oxfordshire, UK). Culture medium was RPMI-1640 containing 2 mM L-glutamine, 50 U/ml penicillin G, 50 μg/ml streptomycin sulphate, 50 μM β-mercaptoethanol and 10% fetal calf serum. Cells were cultured at 37° and in 5% CO2 for 72 hr before assay development using a biotinylated anti-IFN-γ antibody, a horseradish peroxidase detection antibody and TMB substrate (2BScientific). Developed plates were left to dry before spot counting using an AID ELISpot reader (Autoimmun Diagnostika GMBH). Positive epitopes for a given transgenic line were defined as those where more than half of assayed animals gave a greater number of spot-forming cells than 2 SD over the mean of the no protein/peptide control.
(§3) Fig 1 Definition of HLA-DR specific T-cell epitopes in DR1 and DR4 transgenic mice. (a) HLA-DR1 (n = 5) and (b) HLA-DR4 (n = 6) mice were footpad primed with ssEB protein in combination with TiterMax® Gold adjuvant. Draining lymph node (DLN) cells were assayed by ELISpot at day 10 for interferon-γ (IFN-γ) T-cell responses to ssEB peptides and protein. A peptide was defined as containing a T-cell epitope for DR1 or DR4 HLA molecules if more than half of the mice assayed gave a greater number of spot-forming cells than 2 SD over the mean of the no peptide/protein control. The 2 SD value for each transgenic line is shown by a dotted line.

HLA-DRB1*11:01 = HLA-DRB1*11:01 (Homo sapiens, UniProt P01903+P01911, A100R/A169T/A87E/I96F/K41T/L162R/M171V/P40S/Q125H/Q178H/Q39Y/Q99D/R42S/S66Y/T262R/V115G/W38E); conditions: competitive ELISA; ratio IC50 of peptide / IC50 of reference peptide HA 306–318; lower = higher affinity; ratio 20 or less high, 20–100 moderate; three independent experiments
HLA-DRB1*09:01 = molecular target: T1, HLA-DRB1*09:01 (Homo sapiens, UniProt P01903+P01911, A100R/A103E/D57H/D86V/F55Y/F60I/F76Y/I96F/K127E/L162R/M171V/P40D/Q125H/Q99R/R33Q/R42F/S133A/S66N/T210M/V115G/W38K/Y107V/Y59G/Y89S); experiment: Peptide/HLA-DR binding, competitive ELISA; conditions: ratio IC50 of peptide / IC50 of reference peptide CTP 427–441, lower = higher affinity, ratio 20 or less high, 20–100 moderate, three independent experiments
T1 construct: HLA-DR heterodimers were purified from homozygous Epstein–Barr virus B-lymphoblastoid cell lines; host or cells: homozygous EBV B-lymphoblastoid cell line
Procedure: (§4) HLA-DR heterodimers were purified from homozygous Epstein–Barr virus B-lymphoblastoid cell lines (HPA Culture Collections, Salisbury, UK) by affinity chromatography with the monomorphic HLA-DRα monoclonal antibody, L243.[29],[30] Binding of the SseB peptide panel to the HLA-DR molecules HLA-DRB1*01:01, 03:01, 04:01, 07:01, 09:01, 11:01, 12:02, 15:01, 15:02 was assessed by competitive ELISA, as previously described, using an automated workstation.[29],[30] We evaluated the peptide concentration able to prevent binding of 50% of the labelled peptide (IC50). Data were expressed as relative affinity: ratio of the IC50 of the peptide to the IC50 of the reference peptide, which is a high binder to the HLA class II molecule. Unlabelled forms of the biotinylated peptides were used as reference peptides.

HLA-DRB1*03:01 = molecular target: T2, HLA-DRB1*03:01 (Homo sapiens, UniProt P01903+P01911, A100K/A102G/A103R/A169T/F55Y/I96L/K41T/L162R/M171V/P40S/Q125H/Q178H/Q39Y/R42S/S66N/T106N/T262R/W38E/Y61H); experiment: Peptide/HLA-DR binding, competitive ELISA; conditions: ratio IC50 of peptide / IC50 of reference peptide MT2-16, lower = higher affinity, ratio 20 or less high, 20–100 moderate, three independent experiments
T2 construct: HLA-DR heterodimers were purified from homozygous Epstein–Barr virus B-lymphoblastoid cell lines; host or cells: homozygous EBV B-lymphoblastoid cell line
Procedure: as §4

HLA-DRB1*12:02 = HLA-DRB1*12:02 (Homo sapiens, UniProt P01903+P01911, A100R/A169T/D57E/D86V/F55L/H45Y/I96F/K41T/L162R/M171V/P40S/Q125H/Q178H/Q39Y/Q99D/R42G/S66L/T262R/V114A/V67L/W38E/Y59H/Y61H/Y89S); experiment: Peptide/HLA-DR binding, competitive ELISA; conditions: ratio IC50 of peptide / IC50 of reference peptide TFR 141–155, lower = higher affinity, ratio 20 or less high, 20–100 moderate, three independent experiments
Procedure: as §4

HLA-DRB1*15:02 = molecular target: T3, HLA-DRB1*15:02 (Homo sapiens, UniProt P01903+P01911, V115G); experiment: Peptide/HLA-DR binding, competitive ELISA; conditions: ratio IC50 of peptide / IC50 of reference peptide TFR 607–620, lower = higher affinity, ratio 20 or less high, 20–100 moderate, three independent experiments
T3 construct: HLA-DR heterodimers were purified from homozygous Epstein–Barr virus B-lymphoblastoid cell lines; host or cells: homozygous EBV B-lymphoblastoid cell line
Procedure: as §4

HLA-DRB1*01:01 = HLA-DRB1*01:01 (Homo sapiens, UniProt P01903+P01911, A100R/D57E/F55L/F60I/F76Y/I96L/L162R/M171V/P40L/Q125E/R42F/V115G/Y59C); conditions: competitive ELISA; ratio IC50 of peptide / IC50 of reference peptide HA 306–318; lower = higher affinity; ratio 20 or less high, 20–100 moderate; three independent experiments
HLA-DRB1*04:01 = HLA-DRB1*04:01 (Homo sapiens, UniProt P01903+P01911, A100K/A169T/F76Y/I96L/K127E/L162R/M171V/N62H/P40V/Q125Y/R42H/S133A/S149N/S66Y/V115G/V209L/W38E); conditions: competitive ELISA; ratio IC50 of peptide / IC50 of reference peptide HA 306–318; lower = higher affinity; ratio 20 or less high, 20–100 moderate; three independent experiments
[2] = tested on: draining lymph node cells of HLA-DR4 transgenic mice; experiment: Murine IFN-γ ELISpot, HLA-DR4 transgenic mice primed with SseB; conditions: mouse, in vivo
Excerpt: as §1, §2, §3

## 2: SseB overlapping library peptide, residues 11–30 (QNPIVFKNSFGVSNADTGSQ) [Peptide 2]
[1]
  IFN-γ ELISpot recall response / CD4 epitope in HLA-DR1 transgenic mice: carry HLA-DR1 restricted immunodominant CD4 epitopes
HLA-DRB1*11:01
  Relative binding affinity of peptide to HLA-DR molecules DRB1*1101: > 278
HLA-DRB1*09:01
  Relative binding affinity of peptide to HLA-DR molecules DRB1*0901: 10
HLA-DRB1*03:01
  Relative binding affinity of peptide to HLA-DR molecules DRB1*0301: > 119
HLA-DRB1*12:02
  Relative binding affinity of peptide to HLA-DR molecules DRB1*1202: 59
HLA-DRB1*15:02
  Relative binding affinity of peptide to HLA-DR molecules DRB1*1502: 5
HLA-DRB1*01:01
  Relative binding affinity of peptide to HLA-DR molecules DRB1*0101: 300
HLA-DRB1*04:01
  Relative binding affinity of peptide to HLA-DR molecules DRB1*0401: 9

## 11: SseB overlapping library peptide, residues 101–120 (EDVIKYMRDNGILIDGMTID) [Peptide 11]
[1]
  IFN-γ ELISpot recall response / CD4 epitope in HLA-DR1 transgenic mice: carry HLA-DR1 restricted immunodominant CD4 epitopes
HLA-DRB1*11:01
  Relative binding affinity of peptide to HLA-DR molecules DRB1*1101: > 278
HLA-DRB1*09:01
  Relative binding affinity of peptide to HLA-DR molecules DRB1*0901: 34
HLA-DRB1*03:01
  Relative binding affinity of peptide to HLA-DR molecules DRB1*0301: > 119
HLA-DRB1*12:02
  Relative binding affinity of peptide to HLA-DR molecules DRB1*1202: 8
HLA-DRB1*15:02
  Relative binding affinity of peptide to HLA-DR molecules DRB1*1502: 37
HLA-DRB1*01:01
  Relative binding affinity of peptide to HLA-DR molecules DRB1*0101: 61
HLA-DRB1*04:01
  Relative binding affinity of peptide to HLA-DR molecules DRB1*0401: 17
[2]
  IFN-γ ELISpot recall response / CD4 epitope in HLA-DR4 transgenic mice: CD4 epitopes detected

## AVLTQLTGLISKWGEISSMIAQKTYS [Peptide 18, SseB overlapping library peptide, residues 171–196]
[1]
  IFN-γ ELISpot recall response / CD4 epitope in HLA-DR1 transgenic mice: carry HLA-DR1 restricted immunodominant CD4 epitopes
HLA-DRB1*11:01
  Relative binding affinity of peptide to HLA-DR molecules DRB1*1101: 7
HLA-DRB1*09:01
  Relative binding affinity of peptide to HLA-DR molecules DRB1*0901: 21
HLA-DRB1*03:01
  Relative binding affinity of peptide to HLA-DR molecules DRB1*0301: > 119
HLA-DRB1*12:02
  Relative binding affinity of peptide to HLA-DR molecules DRB1*1202: 4
HLA-DRB1*15:02
  Relative binding affinity of peptide to HLA-DR molecules DRB1*1502: 63
HLA-DRB1*01:01
  Relative binding affinity of peptide to HLA-DR molecules DRB1*0101: 2
HLA-DRB1*04:01
  Relative binding affinity of peptide to HLA-DR molecules DRB1*0401: 2
[2]
  IFN-γ ELISpot recall response / CD4 epitope in HLA-DR4 transgenic mice: not DR4
